Ends that are not written are not given here. * marks the point of attachment. C16 diacid = O=C(O)CCCCCCCCCCCCCCC(=O)*; Stearoyl = CCCCCCCCCCCCCCCCCC(=O)*; Palmitoyl = CCCCCCCCCCCCCCCC(=O)*; Myristoyl = CCCCCCCCCCCCCC(=O)*; Lauroyl = CCCCCCCCCCCC(=O)*

The text below walks through data of patent US20200087373A1 (UNIVERSITY OF COPENHAGEN, published 2020).

First the molecules themselves.
T1: human GIP receptor (human, UniProt P48546 22-466)
T1 construct: whole, on cells; also called hGIPR
T1 sequence (looked up): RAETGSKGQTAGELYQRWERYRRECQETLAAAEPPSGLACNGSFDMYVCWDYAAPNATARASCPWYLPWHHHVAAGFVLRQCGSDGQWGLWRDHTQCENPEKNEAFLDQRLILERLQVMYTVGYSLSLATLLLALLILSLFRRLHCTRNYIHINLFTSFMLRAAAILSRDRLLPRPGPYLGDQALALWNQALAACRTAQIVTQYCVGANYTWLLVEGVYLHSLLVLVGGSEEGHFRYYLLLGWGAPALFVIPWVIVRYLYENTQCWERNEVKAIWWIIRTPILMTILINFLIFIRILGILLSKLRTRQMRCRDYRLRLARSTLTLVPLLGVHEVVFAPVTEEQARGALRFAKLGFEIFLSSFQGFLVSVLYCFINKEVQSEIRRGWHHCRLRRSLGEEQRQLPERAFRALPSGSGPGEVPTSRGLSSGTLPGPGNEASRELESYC

B1: AT154 [hGIP(3-30)NH2-C12/16] (peptide)
peptide: EGTFISDYSIAMDK(Lauroyl)IHQQDFVNWLLAQK-NH2
notes: printed with the same formula as AT102 but a different ID and different values
B2: AT125 [hGIP(5-30)NH2-C16/16] (peptide)
peptide: TFISDYSIAMDK(Palmitoyl)IHQQDFVNWLLAQK-NH2
modifications: N-terminus assumed
SMILES: CCCCCCCCCCCCCCCC(=O)NCCCC[C@H](NC(=O)[C@H](CC(=O)O)NC(=O)[C@H](CCSC)NC(=O)[C@H](C)NC(=O)[C@@H](NC(=O)[C@H](CO)NC(=O)[C@H](Cc1ccc(O)cc1)NC(=O)[C@H](CC(=O)O)NC(=O)[C@H](CO)NC(=O)[C@@H](NC(=O)[C@H](Cc1ccccc1)NC(=O)[C@@H](N)[C@@H](C)O)[C@@H](C)CC)[C@@H](C)CC)C(=O)N[C@H](C(=O)N[C@@H](Cc1c[nH]cn1)C(=O)N[C@@H](CCC(N)=O)C(=O)N[C@@H](CCC(N)=O)C(=O)N[C@@H](CC(=O)O)C(=O)N[C@@H](Cc1ccccc1)C(=O)N[C@H](C(=O)N[C@@H](CC(N)=O)C(=O)N[C@@H](Cc1c[nH]c2ccccc12)C(=O)N[C@@H](CC(C)C)C(=O)N[C@@H](CC(C)C)C(=O)N[C@@H](C)C(=O)N[C@@H](CCC(N)=O)C(=O)N[C@@H](CCCCN)C(N)=O)C(C)C)[C@@H](C)CC
B3: AT123 [hGIP(5-30)NH2-C14/30] (peptide)
peptide: TFISDYSIAMDKIHQQDFVNWLLAQK(Myristoyl)-NH2
modifications: N-terminus assumed
SMILES: CCCCCCCCCCCCCC(=O)NCCCC[C@H](NC(=O)[C@H](CCC(N)=O)NC(=O)[C@H](C)NC(=O)[C@H](CC(C)C)NC(=O)[C@H](CC(C)C)NC(=O)[C@H](Cc1c[nH]c2ccccc12)NC(=O)[C@H](CC(N)=O)NC(=O)[C@@H](NC(=O)[C@H](Cc1ccccc1)NC(=O)[C@H](CC(=O)O)NC(=O)[C@H](CCC(N)=O)NC(=O)[C@H](CCC(N)=O)NC(=O)[C@H](Cc1c[nH]cn1)NC(=O)[C@@H](NC(=O)[C@H](CCCCN)NC(=O)[C@H](CC(=O)O)NC(=O)[C@H](CCSC)NC(=O)[C@H](C)NC(=O)[C@@H](NC(=O)[C@H](CO)NC(=O)[C@H](Cc1ccc(O)cc1)NC(=O)[C@H](CC(=O)O)NC(=O)[C@H](CO)NC(=O)[C@@H](NC(=O)[C@H](Cc1ccccc1)NC(=O)[C@@H](N)[C@@H](C)O)[C@@H](C)CC)[C@@H](C)CC)[C@@H](C)CC)C(C)C)C(N)=O
B4: AT159 [hGIP(3-30)NH2[K16R; H18K; K30R]-C16diacid/18] (peptide)
peptide: EGTFISDYSIAMDRIK(C16 diacid)QQDFVNWLLAQR-NH2
modifications: N-terminus assumed
SMILES: CC[C@H](C)[C@H](NC(=O)[C@H](CO)NC(=O)[C@H](Cc1ccc(O)cc1)NC(=O)[C@H](CC(=O)O)NC(=O)[C@H](CO)NC(=O)[C@@H](NC(=O)[C@H](Cc1ccccc1)NC(=O)[C@@H](NC(=O)CNC(=O)[C@@H](N)CCC(=O)O)[C@@H](C)O)[C@@H](C)CC)C(=O)N[C@@H](C)C(=O)N[C@@H](CCSC)C(=O)N[C@@H](CC(=O)O)C(=O)N[C@@H](CCCNC(=N)N)C(=O)N[C@H](C(=O)N[C@@H](CCCCNC(=O)CCCCCCCCCCCCCCC(=O)O)C(=O)N[C@@H](CCC(N)=O)C(=O)N[C@@H](CCC(N)=O)C(=O)N[C@@H](CC(=O)O)C(=O)N[C@@H](Cc1ccccc1)C(=O)N[C@H](C(=O)N[C@@H](CC(N)=O)C(=O)N[C@@H](Cc1c[nH]c2ccccc12)C(=O)N[C@@H](CC(C)C)C(=O)N[C@@H](CC(C)C)C(=O)N[C@@H](C)C(=O)N[C@@H](CCC(N)=O)C(=O)N[C@@H](CCCNC(=N)N)C(N)=O)C(C)C)[C@@H](C)CC
B5: AT163 [hGIP(3-30)NH2[H18K]-C16/16] (peptide)
peptide: EGTFISDYSIAMDK(Palmitoyl)IKQQDFVNWLLAQK-NH2
modifications: N-terminus assumed
SMILES: CCCCCCCCCCCCCCCC(=O)NCCCC[C@H](NC(=O)[C@H](CC(=O)O)NC(=O)[C@H](CCSC)NC(=O)[C@H](C)NC(=O)[C@@H](NC(=O)[C@H](CO)NC(=O)[C@H](Cc1ccc(O)cc1)NC(=O)[C@H](CC(=O)O)NC(=O)[C@H](CO)NC(=O)[C@@H](NC(=O)[C@H](Cc1ccccc1)NC(=O)[C@@H](NC(=O)CNC(=O)[C@@H](N)CCC(=O)O)[C@@H](C)O)[C@@H](C)CC)[C@@H](C)CC)C(=O)N[C@H](C(=O)N[C@@H](CCCCN)C(=O)N[C@@H](CCC(N)=O)C(=O)N[C@@H](CCC(N)=O)C(=O)N[C@@H](CC(=O)O)C(=O)N[C@@H](Cc1ccccc1)C(=O)N[C@H](C(=O)N[C@@H](CC(N)=O)C(=O)N[C@@H](Cc1c[nH]c2ccccc12)C(=O)N[C@@H](CC(C)C)C(=O)N[C@@H](CC(C)C)C(=O)N[C@@H](C)C(=O)N[C@@H](CCC(N)=O)C(=O)N[C@@H](CCCCN)C(N)=O)C(C)C)[C@@H](C)CC
B6: AT160 [hGIP(3-30)NH2[H18K]-C18/18] (peptide)
peptide: EGTFISDYSIAMDKIK(Stearoyl)QQDFVNWLLAQK-NH2
modifications: N-terminus assumed
SMILES: CCCCCCCCCCCCCCCCCC(=O)NCCCC[C@H](NC(=O)[C@@H](NC(=O)[C@H](CCCCN)NC(=O)[C@H](CC(=O)O)NC(=O)[C@H](CCSC)NC(=O)[C@H](C)NC(=O)[C@@H](NC(=O)[C@H](CO)NC(=O)[C@H](Cc1ccc(O)cc1)NC(=O)[C@H](CC(=O)O)NC(=O)[C@H](CO)NC(=O)[C@@H](NC(=O)[C@H](Cc1ccccc1)NC(=O)[C@@H](NC(=O)CNC(=O)[C@@H](N)CCC(=O)O)[C@@H](C)O)[C@@H](C)CC)[C@@H](C)CC)[C@@H](C)CC)C(=O)N[C@@H](CCC(N)=O)C(=O)N[C@@H](CCC(N)=O)C(=O)N[C@@H](CC(=O)O)C(=O)N[C@@H](Cc1ccccc1)C(=O)N[C@H](C(=O)N[C@@H](CC(N)=O)C(=O)N[C@@H](Cc1c[nH]c2ccccc12)C(=O)N[C@@H](CC(C)C)C(=O)N[C@@H](CC(C)C)C(=O)N[C@@H](C)C(=O)N[C@@H](CCC(N)=O)C(=O)N[C@@H](CCCCN)C(N)=O)C(C)C
B7: AT148 [hGIP(3-30)NH2-C12/3] (peptide)
peptide: Lauroyl-EGTFISDYSIAMDKIHQQDFVNWLLAQK-NH2
notes: printed with the same formula as AT101 but a different ID and different values
B8: AT120 [hGIP(5-30)NH2-C12/30] (peptide)
peptide: TFISDYSIAMDKIHQQDFVNWLLAQK(Lauroyl)-NH2
modifications: N-terminus assumed
SMILES: CCCCCCCCCCCC(=O)NCCCC[C@H](NC(=O)[C@H](CCC(N)=O)NC(=O)[C@H](C)NC(=O)[C@H](CC(C)C)NC(=O)[C@H](CC(C)C)NC(=O)[C@H](Cc1c[nH]c2ccccc12)NC(=O)[C@H](CC(N)=O)NC(=O)[C@@H](NC(=O)[C@H](Cc1ccccc1)NC(=O)[C@H](CC(=O)O)NC(=O)[C@H](CCC(N)=O)NC(=O)[C@H](CCC(N)=O)NC(=O)[C@H](Cc1c[nH]cn1)NC(=O)[C@@H](NC(=O)[C@H](CCCCN)NC(=O)[C@H](CC(=O)O)NC(=O)[C@H](CCSC)NC(=O)[C@H](C)NC(=O)[C@@H](NC(=O)[C@H](CO)NC(=O)[C@H](Cc1ccc(O)cc1)NC(=O)[C@H](CC(=O)O)NC(=O)[C@H](CO)NC(=O)[C@@H](NC(=O)[C@H](Cc1ccccc1)NC(=O)[C@@H](N)[C@@H](C)O)[C@@H](C)CC)[C@@H](C)CC)[C@@H](C)CC)C(C)C)C(N)=O

The target of the test is T1, human GIP receptor. Kind of test: 125I-hGIP competition binding, COS-7 cells expressing hGIPR.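 Note: nonspecific binding taken as radioligand bound by untransfected cells, binding buffer with or without 2% HSA.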
Protocol: After incubation, the cells were washed twice in ice-cold binding buffer (+/−2% HSA) and lysed using 200 mM NaOH with 1% SDS for 30 min. Nonspecific binding was determined as the binding of radioactive ligand to untransfected cells.
As for Myristoyl-EGTFISDYSIAMDKIHQQDFVNWLLAQK-NH2 [AT110 [hGIP(3-30)NH2-C14/3]], the IC50 (in general, the midpoint of a concentration-inhibition curve) worked out at 55.5 nM and the “log IC50” value is -7.3 log M.

As for EGTFISDYSIAMDKIHQQDFVNWLLAQK(Myristoyl)-NH2 [AT112 [hGIP(3-30)NH2-C14/30]], the IC50 was 451 nM and the “log IC50” value was -6.3 log M.

Consider EGTFISDYSIAMDKIHQQDFVNWLLAQK(Stearoyl)-NH2 [AT115 [hGIP(3-30)NH2-C18/30]], for which the IC50 was 1520 nM and the “log IC50” value was -5.8 log M.

Turning to B1, the half-inhibitory concentration (IC50) was found to be 27 nM and the “log IC50” value was -8 log M.

For the molecule Palmitoyl-EGTFISDYSIAMDKIHQQDFVNWLLAQK-NH2 [AT104 [hGIP(3-30)NH2-C16/3]], the IC50 was determined as 75 nM and the “log IC50” value was -7.1 log M.

For the molecule B2, the IC50 worked out at 714 nM and the “log IC50” value is -6.1 log M.

Consider B3, for which the half-maximal inhibitory concentration (IC50) came out at 674 nM and the “log IC50” value is -6.2 log M.

With B4, the IC50 turned out to be 18 nM. This lies in the double-digit nanomolar range.

As to B5, the 50% inhibitory concentration (IC50) came to 205 nM.

B6 registered an IC50 of 49 nM.

Regarding EGTFISDYSIAMDK(Palmitoyl)IHQQDFVNWLLAQK-NH2 [AT105 [hGIP(3-30)NH2-C16/16]], the IC50 was found to be 522 nM and the “log IC50” value is -6.3 log M.

For the molecule B7, the IC50 came to 24 nM and the “log IC50” value was -8 log M.

For the molecule EGTFISDYSIAMDK(Lauroyl)IHQQDFVNWLLAQK-NH2 [AT102 [hGIP(3-30)NH2-C12/16]], the IC50 worked out at 59.1 nM and the “log IC50” value is -7.2 log M.

For EGTFISDYSIAMDKIHQQDFVNWLLAQK(Palmitoyl)-NH2 [AT106 [hGIP(3-30)NH2-C16/30]], the IC50 is 1410 nM and the “log IC50” value was -5.9 log M.

For the molecule Stearoyl-EGTFISDYSIAMDKIHQQDFVNWLLAQK-NH2 [AT113 [hGIP(3-30)NH2-C18/3]], the IC50 is 41400 nM and the “log IC50” value was -4.4 log M.

As to B8, the IC50 was 1090 nM and the “log IC50” value was -6 log M.

On to EGTFISDYSIAMDKIHQQDFVNWLLAQK(Lauroyl)-NH2 [AT103 [hGIP(3-30)NH2-C12/30]], for which the IC50 was determined as 4710 nM and the “log IC50” value was -5.3 log M.
